From patent publication US20220251237A1 (R P SCHERER TECHNOLOGIES, published 2022)

How the values were obtained:
[1] = target: T1, human glypican-3-His (R&D Systems) (human, UniProt P51654 25-559); experiment: ELISA, plate coated with 1 µg/mL human glypican-3-His
T1 construct: Bought His-tagged protein; also called recombinant human glypican-3 protein; GPC3; not shown: His tag
Protocol: (§1) To perform the ELISA, Maxisorp 96-well plates (Nunc) were coated overnight at 4° C. with 1 μg/mL of human glypican-3-His (R&D Systems) in PBS. The plate was blocked with casein buffer (ThermoFisher), and then CAT-07 was plated in an 11-step series of 2-fold dilutions starting at 150 ng/mL. The plate was incubated, shaking, at room temperature for 2 h. After washing in PBS 0.1% Tween-20, bound analyte was detected with a donkey anti-human Fc-γ-specific horseradish peroxidase (HRP)-conjugated secondary antibody. Signals were visualized with Ultra TMB (Pierce) and quenched with 2 N H₂SO₄. Absorbance at 450 nm was determined using a Molecular Devices SpectraMax M5 plate reader and the data were analyzed using GraphPad Prism.

[2] = target: T2, human glypican-1 His-tagged protein (R&D Systems) (human, UniProt P35052 24-530, limits assumed); experiment: ELISA, plate coated with 1 µg/mL His-tagged glypican
T2 construct: Bought; not shown: His tag
T2 sequence (looked up): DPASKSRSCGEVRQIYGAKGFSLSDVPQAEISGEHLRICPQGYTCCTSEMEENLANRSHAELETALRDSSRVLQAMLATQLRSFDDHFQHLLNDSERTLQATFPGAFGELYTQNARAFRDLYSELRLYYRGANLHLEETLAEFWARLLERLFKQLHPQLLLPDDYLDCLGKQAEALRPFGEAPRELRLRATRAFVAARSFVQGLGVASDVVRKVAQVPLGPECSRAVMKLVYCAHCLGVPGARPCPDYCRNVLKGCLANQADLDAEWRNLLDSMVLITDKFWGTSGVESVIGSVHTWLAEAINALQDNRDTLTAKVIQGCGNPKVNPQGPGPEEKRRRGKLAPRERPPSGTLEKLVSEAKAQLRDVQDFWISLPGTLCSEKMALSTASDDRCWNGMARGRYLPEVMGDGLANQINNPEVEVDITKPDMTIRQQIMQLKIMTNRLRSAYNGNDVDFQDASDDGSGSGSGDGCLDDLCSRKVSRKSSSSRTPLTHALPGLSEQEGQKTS
Protocol: as §1, with “of human glypican His-tagged proteins (glypican-1, glypican-2, glypican-3, glypican-5, and glypican-6 all from R&D Systems) in” for “of human glypican-3-His (R&D Systems) in”, “PBS. The plates were blocked with” for “PBS. The plate was blocked with”, “ng/mL. The plates was incubated,” for “ng/mL. The plate was incubated,”

[3] = target: T3, human glypican-6 His-tagged protein (R&D Systems) (human, UniProt Q9Y625 24-529, limits assumed); experiment: as above
T3 construct: Bought; not shown: His tag
T3 sequence (looked up): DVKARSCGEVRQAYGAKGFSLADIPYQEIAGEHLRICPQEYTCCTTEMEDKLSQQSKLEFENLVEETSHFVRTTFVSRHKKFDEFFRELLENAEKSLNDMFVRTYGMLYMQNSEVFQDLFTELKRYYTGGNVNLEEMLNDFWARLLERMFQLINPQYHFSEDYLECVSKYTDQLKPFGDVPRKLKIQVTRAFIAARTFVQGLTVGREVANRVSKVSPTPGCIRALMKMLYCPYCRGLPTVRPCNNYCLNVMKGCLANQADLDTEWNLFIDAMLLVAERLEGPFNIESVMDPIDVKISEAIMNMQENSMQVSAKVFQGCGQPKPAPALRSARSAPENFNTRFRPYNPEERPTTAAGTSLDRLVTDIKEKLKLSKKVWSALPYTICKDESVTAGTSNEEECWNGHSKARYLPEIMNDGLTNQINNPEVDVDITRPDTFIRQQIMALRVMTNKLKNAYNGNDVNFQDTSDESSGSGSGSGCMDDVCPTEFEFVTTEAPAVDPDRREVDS
Protocol: as §1, with “of human glypican His-tagged proteins (glypican-1, glypican-2, glypican-3, glypican-5, and glypican-6 all from R&D Systems) in” for “of human glypican-3-His (R&D Systems) in”, “PBS. The plates were blocked with” for “PBS. The plate was blocked with”, “ng/mL. The plates was incubated,” for “ng/mL. The plate was incubated,”

[4] = target: T4, human glypican-5 His-tagged protein (R&D Systems) (human, UniProt P78333 25-551, limits assumed); experiment: as above
T4 construct: Bought; not shown: His tag
T4 sequence (looked up): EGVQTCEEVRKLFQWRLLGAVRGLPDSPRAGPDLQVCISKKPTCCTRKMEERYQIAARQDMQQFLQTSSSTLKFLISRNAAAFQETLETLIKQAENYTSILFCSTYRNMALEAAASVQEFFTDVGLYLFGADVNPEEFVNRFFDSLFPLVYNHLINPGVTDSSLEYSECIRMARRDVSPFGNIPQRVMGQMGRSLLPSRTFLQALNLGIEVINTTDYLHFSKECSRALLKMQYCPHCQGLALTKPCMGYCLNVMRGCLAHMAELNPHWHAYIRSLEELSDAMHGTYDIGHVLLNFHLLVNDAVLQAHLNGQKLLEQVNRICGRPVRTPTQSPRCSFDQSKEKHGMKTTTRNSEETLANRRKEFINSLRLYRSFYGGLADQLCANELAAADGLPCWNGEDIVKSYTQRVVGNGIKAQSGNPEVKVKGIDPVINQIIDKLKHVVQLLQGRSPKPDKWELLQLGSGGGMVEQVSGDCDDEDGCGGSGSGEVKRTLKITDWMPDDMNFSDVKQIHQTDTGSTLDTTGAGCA
Protocol: as §1, with “of human glypican His-tagged proteins (glypican-1, glypican-2, glypican-3, glypican-5, and glypican-6 all from R&D Systems) in” for “of human glypican-3-His (R&D Systems) in”, “PBS. The plates were blocked with” for “PBS. The plate was blocked with”, “ng/mL. The plates was incubated,” for “ng/mL. The plate was incubated,”

[5] = target: T5, human glypican-2 His-tagged protein (R&D Systems) (human, UniProt Q8N158 24-554, limits assumed); experiment: as above
T5 construct: Bought; not shown: His tag
T5 sequence (looked up): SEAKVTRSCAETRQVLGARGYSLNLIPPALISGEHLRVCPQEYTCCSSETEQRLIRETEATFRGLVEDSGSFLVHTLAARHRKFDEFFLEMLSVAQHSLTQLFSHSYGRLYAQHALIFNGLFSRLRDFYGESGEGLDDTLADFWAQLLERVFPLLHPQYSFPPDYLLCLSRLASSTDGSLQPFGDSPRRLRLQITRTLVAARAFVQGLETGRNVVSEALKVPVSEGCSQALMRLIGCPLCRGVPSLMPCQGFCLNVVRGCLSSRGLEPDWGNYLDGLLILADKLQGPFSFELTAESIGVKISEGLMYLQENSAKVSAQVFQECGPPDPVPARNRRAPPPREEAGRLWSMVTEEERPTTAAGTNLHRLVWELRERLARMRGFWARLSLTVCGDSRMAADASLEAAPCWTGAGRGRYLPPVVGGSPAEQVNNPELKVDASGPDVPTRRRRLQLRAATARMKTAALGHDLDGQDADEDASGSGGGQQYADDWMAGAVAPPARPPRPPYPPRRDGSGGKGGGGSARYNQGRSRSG
Protocol: as §1, with “of human glypican His-tagged proteins (glypican-1, glypican-2, glypican-3, glypican-5, and glypican-6 all from R&D Systems) in” for “of human glypican-3-His (R&D Systems) in”, “PBS. The plates were blocked with” for “PBS. The plate was blocked with”, “ng/mL. The plates was incubated,” for “ng/mL. The plate was incubated,”

T1 sequence (P51654 25-559 limits assumed): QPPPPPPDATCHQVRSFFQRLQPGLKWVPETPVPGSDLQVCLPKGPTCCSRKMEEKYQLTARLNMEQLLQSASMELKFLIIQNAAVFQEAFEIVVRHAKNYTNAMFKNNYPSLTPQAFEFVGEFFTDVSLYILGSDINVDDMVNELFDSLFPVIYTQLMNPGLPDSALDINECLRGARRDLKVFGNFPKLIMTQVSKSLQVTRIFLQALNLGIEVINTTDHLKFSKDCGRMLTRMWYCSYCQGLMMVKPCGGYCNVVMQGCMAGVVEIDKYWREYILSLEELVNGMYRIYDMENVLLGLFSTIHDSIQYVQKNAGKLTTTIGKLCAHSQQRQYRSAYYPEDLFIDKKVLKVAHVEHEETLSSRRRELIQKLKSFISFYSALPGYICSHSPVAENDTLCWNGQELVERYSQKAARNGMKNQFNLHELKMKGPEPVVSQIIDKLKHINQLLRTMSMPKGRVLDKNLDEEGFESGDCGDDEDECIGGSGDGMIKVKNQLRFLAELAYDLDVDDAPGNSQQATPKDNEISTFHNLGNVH

binding result [1]: binds
B1: CAT-07 monoclonal antibody (antibody, human IgG1, kappa, V domains shown)
VH: QVQLVQSGAEVKKPGASVKVSCKASGYTFTSYFLHWVRQAPGQGLEWMGIIDPPTGRTTYAQKFQGRVTMTRDTSTSTVYMELSSLRSEDTAVYYCARGNYGGRYFDYWGQGTLVTVSS
VL: not shown
binding result [2]: no binding (tested: 2-fold dilutions starting at 150 ng/mL)
binding result [3]: no binding (tested: 2-fold dilutions starting at 150 ng/mL)
binding result [4]: no binding (tested: 2-fold dilutions starting at 150 ng/mL)
binding result [5]: no binding (tested: 2-fold dilutions starting at 150 ng/mL)
